Assay results reported in patent US20220119534A1 (DRAGONFLY THERAPEUTICS, published 2022).
Values joined by “and” are separate entries in the source; they are usually repeats but may differ in a detail not shown here. Equal values may be shown once. Each block holds one binder with its values, some of them ahead of it.

Assays:
[1] = biological target: T1, Human CLEC12A-His (recombinant, K244 WT) (human, UniProt Q5QGZ9 65-265); experiment: SPR, two-state fit; control sample
T1 construct: Made in house (Dragonfly Tx); also called hCLEC12A; hCLEC12A-His; not shown: His tag
T1 sequence: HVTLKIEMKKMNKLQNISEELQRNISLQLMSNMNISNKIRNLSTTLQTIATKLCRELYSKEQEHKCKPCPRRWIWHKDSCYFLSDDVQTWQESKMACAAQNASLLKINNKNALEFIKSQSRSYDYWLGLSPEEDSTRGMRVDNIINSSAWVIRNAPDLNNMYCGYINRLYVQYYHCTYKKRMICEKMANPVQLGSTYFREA

[2] = biological target: T2, Human CLEC12A expressed on cells (Ba/F3-hCLEC12A, PL21, HL60) (human, UniProt Q5QGZ9 1-265); experiment: cell-based or functional assay
T2 sequence: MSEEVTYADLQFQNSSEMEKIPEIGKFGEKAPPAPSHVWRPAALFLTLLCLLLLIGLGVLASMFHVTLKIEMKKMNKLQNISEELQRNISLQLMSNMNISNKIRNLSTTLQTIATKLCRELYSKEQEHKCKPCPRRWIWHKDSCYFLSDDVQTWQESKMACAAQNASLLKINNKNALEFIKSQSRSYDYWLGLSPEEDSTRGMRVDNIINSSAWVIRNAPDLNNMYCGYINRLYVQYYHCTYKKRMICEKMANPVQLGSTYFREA

[3] = biological target: T1, Human CLEC12A-His (recombinant, K244 WT); experiment: SPR, two-state fit (ka1); after 4 wks 40C in CST pH 7.0
Method: Briefly, human Fc specific antibodies were covalently immobilized at a density ˜8000-10000 resonance units (RU) on carboxy methyl dextran matrix of a CM5 biosensor chip via amine-coupling chemistry to create an anti-hFc IgG chip. […] Association was monitored for 300 seconds and dissociation was monitored for 600 seconds. Surfaces were regenerated between cycles with three pulses of 10 mM glycine-HCl, pH 1.7 injected for 20 seconds at 100 μl/min. HBS-EP+ (1×) with 0.1 mg/ml BSA was used as running buffer throughout the experiment. Experiments were performed at physiological temperature of 37° C. To obtain kinetic rate constants and overall binding affinity, double-referenced data were fit to a two-state kinetic model using Biacore 8K Insight Evaluation software (Cytiva).

Human CLEC12A-His [4] = biological target: T3, Human CLEC12A-His (human, UniProt Q5QGZ9 65-265); experiment: SPR, 37 C, AB0192 captured, hCLEC12A-His analyte
T3 construct: Recombinant soluble protein made in house; also called hCLEC12A-His; hCLEC12A; not shown: His tag
T3 sequence: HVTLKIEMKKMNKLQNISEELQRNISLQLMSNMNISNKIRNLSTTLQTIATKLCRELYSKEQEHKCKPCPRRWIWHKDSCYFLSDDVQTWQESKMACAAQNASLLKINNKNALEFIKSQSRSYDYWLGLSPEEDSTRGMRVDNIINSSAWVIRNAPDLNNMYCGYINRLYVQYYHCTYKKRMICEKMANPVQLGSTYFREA

Human CLEC12A-His [5] = biological target: T3, Human CLEC12A-His; experiment: SPR; control sample (forced oxidation study)
Human CD16a V158 [6] = biological target: T4, Human CD16a V158 (human, UniProt P08637 17-208, biotinylated); experiment: SPR; control sample (forced oxidation study)
T4 construct: Bought recombinant receptor; also called hCD16a (V158); hFcγRIIIa V158
T4 sequence (P08637 17-208 F176V limits assumed): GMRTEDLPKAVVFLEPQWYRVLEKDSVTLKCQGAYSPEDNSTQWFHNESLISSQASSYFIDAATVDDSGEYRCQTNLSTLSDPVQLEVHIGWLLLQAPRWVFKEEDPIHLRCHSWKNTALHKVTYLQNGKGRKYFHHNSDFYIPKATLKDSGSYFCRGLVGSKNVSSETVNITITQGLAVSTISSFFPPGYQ

mFc-hNKG2D [7] = biological target: T5, mFc-hNKG2D (human, UniProt P26718 73-216); experiment: SPR; control sample (forced oxidation study)
T5 construct: extracellular domain; Recombinant mFc-tagged NKG2D dimer, made in house; also called human NKG2D; not shown: mouse Fc tag
T5 sequence (looked up): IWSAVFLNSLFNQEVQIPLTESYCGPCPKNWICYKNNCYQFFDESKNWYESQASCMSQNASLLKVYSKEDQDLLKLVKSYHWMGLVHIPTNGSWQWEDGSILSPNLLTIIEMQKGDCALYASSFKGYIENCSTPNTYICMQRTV

Human CD16a V158 [8] = biological target: T4, Human CD16a V158; experiment: SPR, hCD16a V158 captured, kinetic fit
Human CLEC12A-His [9] = biological target: T3, Human CLEC12A-His; experiment: SPR; sample after pH 5.0, 40 C, 2 weeks
Human CD16a V158 [10] = biological target: T4, Human CD16a V158; experiment: SPR; sample after pH 5.0, 40 C, 2 weeks
mFc-hNKG2D [11] = biological target: T5, mFc-hNKG2D; experiment: SPR; sample after pH 5.0, 40 C, 2 weeks
[12] = biological target: T6, recombinant human CD16a V158 (human, UniProt P08637 17-208, biotinylated); experiment: SPR 25C, kinetic fit
T6 construct: also called FcγRIIIa V158; hCD16aV
T6 sequence (P08637 17-208 F176V limits assumed): as the sequence (P08637 17-208 F176V limits assumed) above

Kd [1]: 0.9 nM
kon [3]: 6.31e+06 M⁻¹ s⁻¹
B1: AB0089 TriNKET (bispecific antibody, human IgG1, kappa)
chain: QLQLQESGPGLVKPSETLSLTCTVSGFSLTNYGLHWIRQPPGKCLEWIGVIWVGGATDYNPSLKSRVTISVDTSKNQFSLKLSSVQAADTAVYYCAKGDYGDTLDYWGQGTLVTVSSGGGGSGGGGSGGGGSGGGGSDIQMTQSPSSLSASVGDRVTITCHASQNINFWLSWYQQKPGKAPKLLIYEASNLHTGVPSRFSGSGSGTDFTLTISSLQPEDFATYYCQQSHSYPLTFGCGTKLEIKGSDKTHTCPPCPAPELLGGPSVFLFPPKPKDTLMISRTPEVTCVVVDVSHEDPEVKFNWYVDGVEVHNAKTKPREEQYNSTYRVVSVLTVLHQDWLNGKEYKCKVSNKALPAPIEKTISKAKGQPREPRVYTLPPCRDELTKNQVSLTCLVKGFYPSDIAVEWESNGQPENNYKTTPPVLVSDGSFTLYSKLTVDKSRWQQGNVFSCSVMHEALHNHYTQKSLSLSPG
heavy: EVQLVESGGGLVKPGGSLRLSCAASGFTFSSYSMNWVRQAPGKGLEWVSSISSSSSYIYYADSVKGRFTISRDNAKNSLYLQMNSLRAEDTAVYYCARGAPIGAAAGWFDPWGQGTLVTVSSASTKGPSVFPLAPSSKSTSGGTAALGCLVKDYFPEPVTVSWNSGALTSGVHTFPAVLQSSGLYSLSSVVTVPSSSLGTQTYICNVNHKPSNTKVDKKVEPKSCDKTHTCPPCPAPELLGGPSVFLFPPKPKDTLMISRTPEVTCVVVDVSHEDPEVKFNWYVDGVEVHNAKTKPREEQYNSTYRVVSVLTVLHQDWLNGKEYKCKVSNKALPAPIEKTISKAKGQPREPQVCTLPPSRDELTENQVSLTCLVKGFYPSDIAVEWESNGQPENNYKTTPPVLDSDGSFFLYSWLTVDKSRWQQGNVFSCSVMHEALHNHYTQKSLSLSPG
light: DIQMTQSPSSVSASVGDRVTITCRASQGISSWLAWYQQKPGKAPKLLIYAASSLQSGVPSRFSGSGSGTDFTLTISSLQPEDFATYYCQQGVSFPRTFGGGTKVEIKRTVAAPSVFIFPPSDEQLKSGTASVVCLLNNFYPREAKVQWKVDNALQSGNSQESVTEQDSKDSTYSLSSTLTLSKADYEKHKVYACEVTHQGLSSPVTKSFNRGEC
notes: F3' format heterodimer of three chains; human IgG1 Fc with EW-RVT and Y349C/S354C mutations; also called AB0089 Lot AB0089-002; CLEC12A TriNKET AB0089
EC50, KHYG-1-CD16aV cytotoxicity assay, HL-60 cells; after low pH hold [2]: 0.11 nM
EC50, KHYG-1-CD16aV cytotoxicity assay, HL-60 cells; control sample [2]: 0.11 nM

Kd (Human CLEC12A-His [4]): 1.72 nM and 1.99 nM and 1.71 nM
koff (Human CLEC12A-His [4]): 0.00136 s⁻¹ and 0.00151 s⁻¹ and 0.00134 s⁻¹
kon (Human CLEC12A-His [4]): 787000 M⁻¹ s⁻¹ and 757000 M⁻¹ s⁻¹ and 785000 M⁻¹ s⁻¹
Kd (Human CLEC12A-His [5]): 1.68 nM
koff (Human CLEC12A-His [5]): 0.00129 s⁻¹
kon (Human CLEC12A-His [5]): 771000 M⁻¹ s⁻¹
Kd (Human CD16a V158 [6]): 177 nM
koff (Human CD16a V158 [6]): 0.0202 s⁻¹
kon (Human CD16a V158 [6]): 115000 M⁻¹ s⁻¹
Kd (mFc-hNKG2D [7]): 598 nM
koff (mFc-hNKG2D [7]): 0.124 s⁻¹
kon (mFc-hNKG2D [7]): 208000 M⁻¹ s⁻¹
Kd (Human CD16a V158 [8]): 184 nM and 173 nM and 177 nM
koff (Human CD16a V158 [8]): 0.019 s⁻¹ and 0.0201 s⁻¹ and 0.0206 s⁻¹
kon (Human CD16a V158 [8]): 103000 M⁻¹ s⁻¹ and 116000 M⁻¹ s⁻¹
Kd (Human CLEC12A-His [9]): 1.65 nM
koff (Human CLEC12A-His [9]): 0.0013 s⁻¹
kon (Human CLEC12A-His [9]): 787000 M⁻¹ s⁻¹
Kd (Human CD16a V158 [10]): 192 nM
koff (Human CD16a V158 [10]): 0.0208 s⁻¹
kon (Human CD16a V158 [10]): 108000 M⁻¹ s⁻¹
Kd (mFc-hNKG2D [11]): 574 nM
koff (mFc-hNKG2D [11]): 0.12 s⁻¹
kon (mFc-hNKG2D [11]): 210000 M⁻¹ s⁻¹
B2: AB0192 TriNKET (other)
chain: EVQLVESGGGVVQPGGSLRLSCAASGFTFNAFGMHWVRQAPGKCLEWVAFISSGSTSIYYANTVKGRFTISRDNSKNTLYLQMNSLRAEDTAVYYCARDGYPTGGAMDYWGQGTSVTVSSGGGGSGGGGSGGGGSGGGGSDIQMTQSPSSLSASVGDRVTITCKASQDIYNYLSWFQQKPGKAPKPLIYRANILVSGVPSRFSGSGSGQDYTFTISSLQPEDIATYYCLQFDAFPFTFGCGTKLEIKGSDKTHTCPPCPAPELLGGPSVFLFPPKPKDTLMISRTPEVTCVVVDVSHEDPEVKFNWYVDGVEVHNAKTKPREEQYNSTYRVVSVLTVLHQDWLNGKEYKCKVSNKALPAPIEKTISKAKGQPREPRVYTLPPCRDELTKNQVSLTCLVKGFYPSDIAVEWESNGQPENNYKTTPPVLVSDGSFTLYSKLTVDKSRWQQGNVFSCSVMHEALHNHYTQKSLSLSPG
heavy: EVQLVESGGGLVKPGGSLRLSCAASGFTFSSYSMNWVRQAPGKGLEWVSSISSSSSYIYYADSVKGRFTISRDNAKNSLYLQMNSLRAEDTAVYYCARGAPIGAAAGWFDPWGQGTLVTVSSASTKGPSVFPLAPSSKSTSGGTAALGCLVKDYFPEPVTVSWNSGALTSGVHTFPAVLQSSGLYSLSSVVTVPSSSLGTQTYICNVNHKPSNTKVDKKVEPKSCDKTHTCPPCPAPELLGGPSVFLFPPKPKDTLMISRTPEVTCVVVDVSHEDPEVKFNWYVDGVEVHNAKTKPREEQYNSTYRVVSVLTVLHQDWLNGKEYKCKVSNKALPAPIEKTISKAKGQPREPQVCTLPPSRDELTENQVSLTCLVKGFYPSDIAVEWESNGQPENNYKTTPPVLDSDGSFFLYSWLTVDKSRWQQGNVFSCSVMHEALHNHYTQKSLSLSPG
light: DIQMTQSPSSVSASVGDRVTITCRASQGISSWLAWYQQKPGKAPKLLIYAASSLQSGVPSRFSGSGSGTDFTLTISSLQPEDFATYYCQQGVSFPRTFGGGTKVEIKRTVAAPSVFIFPPSDEQLKSGTASVVCLLNNFYPREAKVQWKVDNALQSGNSQESVTEQDSKDSTYSLSSTLTLSKADYEKHKVYACEVTHQGLSSPVTKSFNRGEC
notes: the condition stands under assay; also called AB0192 Lot AB0192-005

Kd [12]: 234 nM and 235 nM and 243 nM and 241 nM
koff [12]: 0.022 s⁻¹ and 0.023 s⁻¹
kon [12]: 96000 M⁻¹ s⁻¹ and 95000 M⁻¹ s⁻¹ and 93000 M⁻¹ s⁻¹
B3: F3'-1602 TriNKET (other)
chain: QLQLQESGPGLVKPSETLSLTCTVSGFSLTNYGLHWIRQPPGKCLEWIGVIWSGGKTDYNPSLKSRVTISKDTSKNQFSLKLSSVQAADTAVYYCAKYDYDDSLDYWGQGTLVTVSSGGGGSGGGGSGGGGSGGGGSDIQMTQSPSSLSASVGDRVTITCHASQNINFWLSWYQQKPGKAPKLLIYEASNLHTGVPSRFSGSGSGTRFTLTISSLQPEDIATYYCQQSHSYPLTFGCGTKLEIKGSDKTHTCPPCPAPELLGGPSVFLFPPKPKDTLMISRTPEVTCVVVDVSHEDPEVKFNWYVDGVEVHNAKTKPREEQYNSTYRVVSVLTVLHQDWLNGKEYKCKVSNKALPAPIEKTISKAKGQPREPRVYTLPPCRDELTKNQVSLTCLVKGFYPSDIAVEWESNGQPENNYKTTPPVLVSDGSFTLYSKLTVDKSRWQQGNVFSCSVMHEALHNHYTQKSLSLSPG
heavy: EVQLVESGGGLVKPGGSLRLSCAASGFTFSSYSMNWVRQAPGKGLEWVSSISSSSSYIYYADSVKGRFTISRDNAKNSLYLQMNSLRAEDTAVYYCARGAPIGAAAGWFDPWGQGTLVTVSSASTKGPSVFPLAPSSKSTSGGTAALGCLVKDYFPEPVTVSWNSGALTSGVHTFPAVLQSSGLYSLSSVVTVPSSSLGTQTYICNVNHKPSNTKVDKKVEPKSCDKTHTCPPCPAPELLGGPSVFLFPPKPKDTLMISRTPEVTCVVVDVSHEDPEVKFNWYVDGVEVHNAKTKPREEQYNSTYRVVSVLTVLHQDWLNGKEYKCKVSNKALPAPIEKTISKAKGQPREPQVCTLPPSRDELTENQVSLTCLVKGFYPSDIAVEWESNGQPENNYKTTPPVLDSDGSFFLYSWLTVDKSRWQQGNVFSCSVMHEALHNHYTQKSLSLSPG
light: DIQMTQSPSSVSASVGDRVTITCRASQGISSWLAWYQQKPGKAPKLLIYAASSLQSGVPSRFSGSGSGTDFTLTISSLQPEDFATYYCQQGVSFPRTFGGGTKVEIKRTVAAPSVFIFPPSDEQLKSGTASVVCLLNNFYPREAKVQWKVDNALQSGNSQESVTEQDSKDSTYSLSSTLTLSKADYEKHKVYACEVTHQGLSSPVTKSFNRGEC
notes: CLEC12A scFv-Fc, NKG2D A49MI Fab-Fc, human IgG1 Fc; also called AB0237
